In data set [1] the target is T1, SACE_0303 (TetR-family regulator) (Saccharopolyspora erythraea) (UniProt A4F6H8).
T1 sequence: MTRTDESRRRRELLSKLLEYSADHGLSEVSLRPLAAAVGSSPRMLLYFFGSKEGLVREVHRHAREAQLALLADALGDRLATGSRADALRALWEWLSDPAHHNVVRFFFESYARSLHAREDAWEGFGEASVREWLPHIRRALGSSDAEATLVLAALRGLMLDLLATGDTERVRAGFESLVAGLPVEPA
Briefly: EMSA. The settings on record: EMSA: 10 mM Tris-HCl pH 7.5, 60 mM KCl, 50 mM EDTA (so in the source), 10 mM DTT, 5 mM MgCl2, 10% glycerol, 150 ng probe, 20 uL, 30 C 20 min; footprint at 20 C.

Data set [2] has as its target T1, SACE_0303 (TetR-family regulator) (Saccharopolyspora erythraea). Briefly: DNase I footprinting. The settings on record: EMSA: 10 mM Tris-HCl pH 7.5, 60 mM KCl, 50 mM EDTA (so in the source), 10 mM DTT, 5 mM MgCl2, 10% glycerol, 150 ng probe, 20 uL, 30 C 20 min; footprint at 20 C. Background: Mobility shift assays separate free from complexed probe on a gel.
Data set [3] concerns the target T2, SACE_0303 (TetR-family regulator) (Saccharopolyspora erythraea, UniProt A4F6H8 1-187).
T2 sequence: T1 sequence
Briefly: EMSA; EMSA: 10 mM Tris-HCl pH 7.5, 60 mM KCl, 50 mM EDTA (so in the source), 10 mM DTT, 5 mM MgCl2, 10% glycerol, 150 ng probe, 20 uL, 30 C 20 min; footprint at 20 C. The following applies: protein: recombinant; tags: His6 (pET28a, NdeI/HindIII); chain copies: 2; blunt.

With “CGACCTCGGCCGCCTGCTGTCCTGCCGGCGGGCGGCACGTGCCGCGGTCCGCTGAAACGGTTGCGAAAACGGGAAATCACCGCTGAGGGTGGCCGCCGCCGGCGGATTGCGCCGCCGAGATCGGCATGCCTAGGCTTCCACCACCGCTCCATCACGTGCGGGGTCCGGGTCCGGGAGCAGCCGATGCCGCAAGACGCGTGTACTTCCGCCCGGCAGAACACGTCCTCG (double strand) [P3156]”, the binding result in data set [1] is “binds”.

Turning to “AGCTTTGACAGGTCCGCCACGCGTCCCCCTACTCGACGACCACGCAATGGGCGAACAATATAGGAAGGATCAAGAGGTTGACATCGCCTCGTCGAGCCAACGAACCTGTGAACATCTGCATGTTGACAAGATCAACGGCGGCTACCTACTGTGGTGGCCCAGTGACGGGTTGCCGCACATCGCGCTGGGGAGATTCTTTGAATTTCGCCCGTAGCACCGACCTGGAAAGCGAGCAAATGCTCCGGTGAATGGGATCAGTGATTC (double strand) [PeryAI]”, the binding entry in data set [1] was “no binding”.

Regarding “GGCGACGGCGGCTTTCGTCGGTGCGGGTCATCCGGATATCGTACTGAAACGACTGTTTCAGGAGGGCGCATGGGCGGCATCGAGATCCGCACCGGCCCGC (double strand) [P0303-0304]”, the binding entry in data set [1] and in data set [2] was “binds” throughout.

Consider “CGCTGGATCCTACCAACCGGCACGATTGTCCAGCCCACAACAGCATCGCGGTGCCACGTGTGGACCGCGTCGGTCAGATCCTCCCCGCACCTCTCGCCAGCCGTCAAGATCGACCGCGTGCACCTGCGATCGCCGATCAACCGCGACTAGCATCGGGCGCAAGCCGCCACTCGAACGGACACTCGC (double strand) [PermE]”, for which the binding entry in data set [1] is reported as “no binding”.

B1: P0303-0304-56 bpM (dsDNA)
DNA 1: GGGTCATCCGGATATCGTAAAGCTTGGACTGGAATTCGAGGGCGCATGGGCGGCAT
DNA 2: ATGCCGCCCATGCGCCCTCGAATTCCAGTCCAAGCTTTACGATATCCGGATGACCC
Take B1: in data set [3], the binding result is reported as “no binding”.

(Values after publication PMC8476842, “Uncovering and Engineering a Mini-Regulatory Network of the TetR-Family Regulator SACE_0303 for Yield Improvement of Erythromycin in Saccharopolyspora erythraea”.)
